We go through nine substances from PMC6443781.

For assay [1], the target named is GFP-AP2B1 full length (FL) (UniProt P63010). The assay is described as follows: co-immunoprecipitation (anti-Myc IP, anti-AP2B1 blot, band quantification). Particulars: 293FT cells transfected with GFP-AP2B1 and Myc-BUBR1; n = 3 independent experiments; parent: 1.
For assay [2], the target named is AP2M1 160-435 (UniProt Q96CW1). Briefly: peptide-bead pull-down, Coomassie. Particulars: reference: unphosphorylated peptide YMPMS.
UniProt Q96CW1, sequence (Q96CW1 160-435): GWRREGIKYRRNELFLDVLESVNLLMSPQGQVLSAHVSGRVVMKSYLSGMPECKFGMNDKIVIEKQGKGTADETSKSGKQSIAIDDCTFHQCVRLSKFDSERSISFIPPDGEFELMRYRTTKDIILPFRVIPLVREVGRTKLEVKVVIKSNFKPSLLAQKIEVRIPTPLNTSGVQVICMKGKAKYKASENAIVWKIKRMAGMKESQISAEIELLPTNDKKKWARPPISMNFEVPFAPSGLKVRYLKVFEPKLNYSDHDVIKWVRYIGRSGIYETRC
Assay [3] addresses AP2M1 (residues 160–435) (human) (UniProt Q96CW1). The assay is described as follows: ITC; MicroCal ITC200, 20 °C, 25 mM HEPES pH 7.5, 50 mM NaCl; AP2M1 (160–435) 50 µM in the cell, IRS1 peptide (about 0.5 mM) injected.
Assay [4] addresses AP2M1 160-435 (UniProt Q96CW1). Briefly: isothermal titration calorimetry. Particulars: reference: unphosphorylated peptide YMPMS; sites S616. (In ITC the heat of successive injections is recorded.)

Broadly, the Kd is the equilibrium constant for the complex coming apart.

UniProt P63010, sequence (P63010 whole entry): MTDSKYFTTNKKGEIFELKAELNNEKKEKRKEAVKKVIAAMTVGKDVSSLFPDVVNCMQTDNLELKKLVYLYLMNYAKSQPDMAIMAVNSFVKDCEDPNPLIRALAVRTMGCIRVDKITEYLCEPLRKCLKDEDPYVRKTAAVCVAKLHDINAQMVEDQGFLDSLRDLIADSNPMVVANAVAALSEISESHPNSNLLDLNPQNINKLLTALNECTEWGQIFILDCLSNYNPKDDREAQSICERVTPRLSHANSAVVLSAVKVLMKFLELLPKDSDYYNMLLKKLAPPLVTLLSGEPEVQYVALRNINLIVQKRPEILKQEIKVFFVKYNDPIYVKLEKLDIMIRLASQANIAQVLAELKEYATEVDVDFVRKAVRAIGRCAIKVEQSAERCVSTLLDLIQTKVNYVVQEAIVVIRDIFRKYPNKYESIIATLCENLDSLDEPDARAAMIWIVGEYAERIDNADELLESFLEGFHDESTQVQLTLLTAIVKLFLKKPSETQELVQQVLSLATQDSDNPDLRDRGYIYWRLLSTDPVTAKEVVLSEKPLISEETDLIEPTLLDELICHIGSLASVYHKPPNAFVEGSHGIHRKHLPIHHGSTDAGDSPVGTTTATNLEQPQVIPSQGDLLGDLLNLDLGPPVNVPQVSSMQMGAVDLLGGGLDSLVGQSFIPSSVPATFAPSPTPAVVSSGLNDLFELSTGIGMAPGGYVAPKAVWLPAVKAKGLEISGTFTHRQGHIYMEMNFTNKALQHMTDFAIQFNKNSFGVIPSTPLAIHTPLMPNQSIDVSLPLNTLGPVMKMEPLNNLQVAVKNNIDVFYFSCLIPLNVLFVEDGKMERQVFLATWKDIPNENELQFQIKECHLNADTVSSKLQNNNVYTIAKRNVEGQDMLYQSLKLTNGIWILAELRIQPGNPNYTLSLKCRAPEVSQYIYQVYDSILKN

In the case of “Myc-BUBR1 full length (WT) (from UniProt O60566) ΔKEN1”, the ratio to parent in assay [1] came to 1.31.
Consider “IRS1 607-620 (from UniProt P35568) pYMPMS peptide”, for which, in the assay with AP2M1 160-435 [2] (sites Y612), the “binding against the reference” value is “lost”.
For “Myc-BUBR1 full length (WT) (from UniProt O60566) ΔD2”, the ratio to parent in assay [1] came to 0.72.
On the same count and under the same terms, as for “Myc-BUBR1 full length (WT) (from UniProt O60566) ΔPhe; ΔD2”, the figure is 0.67; as for “Myc-BUBR1 full length (WT) (from UniProt O60566) ΔKEN2”, 0.94.
Turning to “phospho-serine IRS1 peptide (pS-IRS1; YMPMpS)”, the Kd in assay [3] is 0.28 µM.
Take “Myc-BUBR1 full length (WT) (from UniProt O60566) ΔPhe”: in assay [1], the ratio to parent came out at 0.75.
As for “IRS1 607-620 (from UniProt P35568) YMPMpS peptide”, in the assay with AP2M1 160-435 [4], the KD entry was “stronger; reference 2.03 µM”. The “binding against the reference” value with AP2M1 160-435 [2] (sites S616) is recorded as “stronger”.
Substance unphosphorylated IRS1 peptide (YMPMS) showed a Kd in assay [3] of 2.03 µM.
